Experimental findings from US20190322724A1 are described below.

pKi: −log10 of the molar value.

Chain of active 62 kDa MMP-2 (P08253 110-660 limits assumed): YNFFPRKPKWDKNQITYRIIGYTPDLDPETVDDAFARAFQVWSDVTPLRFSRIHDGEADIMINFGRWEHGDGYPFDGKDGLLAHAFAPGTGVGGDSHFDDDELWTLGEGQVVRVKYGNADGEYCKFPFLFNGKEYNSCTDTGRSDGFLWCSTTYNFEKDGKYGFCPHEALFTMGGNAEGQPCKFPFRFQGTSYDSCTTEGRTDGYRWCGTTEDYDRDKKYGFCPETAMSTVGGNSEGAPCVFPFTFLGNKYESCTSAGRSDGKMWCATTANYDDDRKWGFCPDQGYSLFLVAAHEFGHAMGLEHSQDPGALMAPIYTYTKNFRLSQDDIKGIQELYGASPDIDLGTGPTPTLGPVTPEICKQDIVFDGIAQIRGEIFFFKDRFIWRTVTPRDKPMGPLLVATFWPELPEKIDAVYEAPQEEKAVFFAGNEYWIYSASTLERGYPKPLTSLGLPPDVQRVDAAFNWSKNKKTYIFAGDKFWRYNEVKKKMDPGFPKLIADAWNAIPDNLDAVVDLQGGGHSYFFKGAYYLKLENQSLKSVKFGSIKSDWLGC
Chain of wild type human TIMP-2 with C-terminal His6 tag (WT TIMP-2-His6) (P16035 other isoform, or with tags, fused parts or gaps): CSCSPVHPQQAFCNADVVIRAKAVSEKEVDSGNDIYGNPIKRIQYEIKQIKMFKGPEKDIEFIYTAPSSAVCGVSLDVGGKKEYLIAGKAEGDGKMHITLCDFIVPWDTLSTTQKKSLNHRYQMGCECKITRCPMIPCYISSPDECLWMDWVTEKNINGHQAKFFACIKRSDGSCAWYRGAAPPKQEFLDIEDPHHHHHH

This assay concerns the target active 62 kDa MMP-2 (UniProt P08253). Put plainly: fluorometric MMP-2 activity assay, competitive inhibition fit; TIMP-2 0-2.5 nM, substrate 0.83-6.66 µM.
Turning to “TIMP-2 Y90E-His6 (from UniProt P16035 27-220)”, the negative-log Ki (pKi) was 9.52.

“TIMP-2 Y90F-His6 (from UniProt P16035 27-220)”: the negative logarithm of the Ki (pKi) was 8.85.

In turn, “wild type human TIMP-2 with C-terminal His6 tag (WT TIMP-2-His6) (from UniProt P16035 27-220)” showed a pKi of 8.82.
